Measured values published in patent US20160207963A1 (GlaxoSmithKline, published 2016).

B1: 1A2 Fab (Fab, V domains shown)
VH: EVQLQQSGPELVKPGASVKMSCKASGYTFTSFIMYWVKQKPGQGLEWLGYIDPYNDGTKYNEKFEGKATLTSDKSSSTAYMELSSLTSEDSAVYYCAKRGNYGNGFAYWGQGTLVTVSA
VL: DIVMTQSQKFVSTSVGDRVSVTCKASQNVGSNVAWYQHKPGHSPTALIYSASHRYSGVPDRFTGSESGTDFTLTISNVQSEDLAEYFCQQYYSYPYTFGGGTKLEIKR
B2: mouse IgG 1A2 (antibody, V domains shown)
VH: EVQLQQSGPELVKPGASVKMSCKASGYTFTSFIMYWVKQKPGQGLEWLGYIDPYNDGTKYNEKFEGKATLTSDKSSSTAYMELSSLTSEDSAVYYCAKRGNYGNGFAYWGQGTLVTVSA
VL: DIVMTQSQKFVSTSVGDRVSVTCKASQNVGSNVAWYQHKPGHSPTALIYSASHRYSGVPDRFTGSESGTDFTLTISNVQSEDLAEYFCQQYYSYPYTFGGGTKLEIKR

Columns and labels:
[1] = molecular target: purified, his-tag depleted, recombinant Viet04 HA trimers (influenza A virus A/Vietnam/1203/04 …, UniProt Q6J8F6 17-531); test: complex formation, size exclusion gel filtration (Superdex 200)
Vietnam Wt (HA1) = Vietnam Wt (HA1) (influenza A virus A/Vietnam/1203/04 …, UniProt Q6J8F6 17-346); test: biolayer interferometry (ForteBio), HA1 on biosensors probed with IgG 10 µg/ml

Binder	binding result [1]	binding result (Vietnam Wt (HA1))
B1	binds	–
B2	–	binds
